Source: patent US20250199010A1

Assays:
Human EGFR-Fc (human) [1] = molecular target: Human EGFR-Fc (human) (UniProt P00533); assay: SPR (Biacore), 37 °C
[2] = molecular target: human EGFR-Fc mutant (L325V, S340A) (human) (UniProt P00533); assay: SPR (Biacore), 37 °C
Mouse EGFR-Fc (mouse) [3] = molecular target: Mouse EGFR-Fc (mouse) (UniProt Q01279); assay: SPR, murine EGFR-Fc
[4] = molecular target: human EGFR-Fc mutant (L325V, S340A) (human) (UniProt P00533); assay: SPR, human EGFR-Fc (L325V, S340A)
Mouse EGFR-Fc (mouse) [5] = molecular target: Mouse EGFR-Fc (mouse) (UniProt Q01279); assay: SPR, murine EGFR-Fc; bracket from the bars of 7D12 and 9G8 to this bar
Human EGFR-Fc (human) [6] = molecular target: Human EGFR-Fc (human) (UniProt P00533); assay: yeast surface display titration with human EGFR (panel Yeast display: HuL6-7D12)
Mouse EGFR-Fc (mouse) [7] = molecular target: Mouse EGFR-Fc (mouse) (UniProt Q01279); assay: SPR, 25 °C
Mouse EGFR-Fc (mouse) [8] = molecular target: Mouse EGFR-Fc (mouse) (UniProt Q01279); assay: SPR (Biacore), 25 °C

9G8 (VHH)
Kd (Human EGFR-Fc (human) [1]): 3.8 nM | Kd [2]: 13 nM

7D12-(GGGS)3-9G8
Kd (Mouse EGFR-Fc (mouse) [3]): 162 nM

7D12-(AP)12-VSG-[-AA]9G8
Kd [4]: 0.04 nM | Kd (Mouse EGFR-Fc (mouse) [3]): 0.7 nM

7D12-(EAAAK)8-VSG-[-AA]9G8
Kd (Mouse EGFR-Fc (mouse) [3]): 1.2 nM

7D12-(AP)12-9G8
Kd [4]: 0.6 nM | Kd (Mouse EGFR-Fc (mouse) [3]): 192 nM | k' (Mouse EGFR-Fc (mouse) [5]): 950000

7D12-(EAAAK)8-9G8
Kd (Mouse EGFR-Fc (mouse) [3]): 194 nM

7D12 (VHH)
Kd (Human EGFR-Fc (human) [6]): 2.1 nM | Kd (Mouse EGFR-Fc (mouse) [7]): 7.2 µM | Kd (Mouse EGFR-Fc (mouse) [8]): 7.2 µM | Kd [2]: 210 nM

7D12-SSV-(E4K4)4-GPG-[-AA]9G8
Kd (Mouse EGFR-Fc (mouse) [3]): 3.1 nM

7D12-KGR-(EAAAK)8-AGG-[-AA]9G8
Kd (Mouse EGFR-Fc (mouse) [3]): 17 nM

7D12-FFH-(EAAAK)6-GGG-[-AA]9G8
Kd (Mouse EGFR-Fc (mouse) [3]): 8.8 nM

7D12-WMV-(GGGS)6-VTG-[-AA]9G8
Kd [4]: 0.04 nM | Kd (Mouse EGFR-Fc (mouse) [3]): 1.2 nM

7D12-(E4K4)5-9G8
Kd [4]: 2 nM | Kd (Mouse EGFR-Fc (mouse) [3]): 621 nM
